Target: Toxoplasma gondii major surface antigen 1 (SAG1) (Toxoplasma gondii, RH strain, UniProt P13664)
Assay: far-Western, overlay or dot blot

Sequence of Toxoplasma gondii major surface antigen 1 (SAG1) (P13664 48-336): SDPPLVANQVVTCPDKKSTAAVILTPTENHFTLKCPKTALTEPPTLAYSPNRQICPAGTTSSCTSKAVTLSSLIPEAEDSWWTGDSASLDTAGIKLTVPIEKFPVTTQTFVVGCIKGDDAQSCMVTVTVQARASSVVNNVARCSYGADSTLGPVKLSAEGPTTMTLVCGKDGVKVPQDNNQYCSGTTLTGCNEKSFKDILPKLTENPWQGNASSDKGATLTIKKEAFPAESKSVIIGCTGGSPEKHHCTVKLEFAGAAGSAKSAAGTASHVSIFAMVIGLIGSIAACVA

B1: scFvSG15(VLT8P)-AP conjugate (scFvSG15-AP with T8P in FR-1 of the kappa VL) (scFv, V domains shown)
VH: QVQLQQSGAELVRPGVSVKISCKGSGYTFTDYGMHWVKQSHAKSLEWIGIISTYSGDASYNQKFKGKATMTVDKSSSTAYMELARLTSEDSAIYYCARSSTWYYFDYWGQGTTLTVSS
VL: DIQVTQTPSSLSASLGDRVTISCRASQDISNYLNWYQQKPDGTVKLLIYYTSRLHSGVPSRFSGSGSGTDYSLTISNLEQEDIATYFCQQGNTLPYTFGGGTKLEIK
binding result: binds

Reference: article PMC6630058 (Biotechnology Reports, 2019)
